According to patent US7838294B2, “Inhibitors of the JNK signal transduction pathway and methods of use” (University of Massachusetts, priority 1997, dated 2010):

Columns and labels:
[1] = tested on: differentiated PC12 cells; assay: NGF withdrawal-induced apoptosis of differentiated PC12 cells; format: cell-based; settings: pCDNA3-Flag-JIP-1 (residues 127-281) transfection; 17 hours following NGF withdrawal; FIG. 5
Excerpt: The effect of JIP-1 on this biological response was investigated to determine whether JIP-1 inhibits the biological effects of the JNK signaling pathway. NGF withdrawal-induced apoptosis of differentiated PC12 cells was examined following transfection with the expression vectors pCDNA3 (control) and pCDNA3-Flag-JIP-1 (containing residues 127-281 of JIP-1) using methods described previously. Xia et al., Science, 270:1326 (1995). The percentage of apoptotic cells in the total transfected cell population was blind-scored and quantitated. This assay scores adherent cells with an apoptotic morphology at 17 hours following NGF withdrawal. Cells that have completed apoptosis are nonadherent and are not scored. Thus, while the cumulative extent of apoptosis is large (100%), lower numbers of apoptotic cells are detected at a single time point.

[2] = tested on: ATF2 transcriptional activity; assay: GAL4 luciferase reporter assay in CHO cells: GAL4-ATF2; format: cell-based, Chinese hamster; settings: GAL4-ATF2 reporter, CHO cells, FIG. 4C
Description: In these experiments, CHO cells were cotransfected with constructs encoding the transcription factors and JIP-1 using previously described methods. Dérijard et al., supra; Sluss et al., supra; Gupta et al., supra. A luciferase reporter plasmid was used to monitor the expression of the transcription factors. Transfection efficiency was determined using a β-galactosidase expression vector. Constructs used in these experiments included GAL4 fusions with the c-myc, Sp1 and VP16 activation domains (described in Whitmarsh et al., Science, 269:403 (1995); Davis, Science, 269:403 (1995); Gille et al., Curr. Biol., 5:1191 (1995)). Other constructs used were GAL4-c-Jun, in which GAL4 is fused to c-Jun; GAL4-c-Jun (S63A/S73A), in which GAL4 is fused to a mutant c-Jun in which the serines at positions 63 and 73 have been changed to alanines; GAL4-ATF2, in which GAL4 is fused to wild type ATF2 (ATF2(Thr-69, 71)); GAL4-ATF2 (T69A/T71A) (ATF2(Ala-69/71)), in which GAL4 has been fused to a mutant ATF2 in which the […] at positions 69 and 71 have been changed to alanines; GAL4-Elk-1, in which GAL4 has been fused to Elk-1; and GAL4-Elk-1 (S383A), in which GAL4 has been fused to a mutant Elk-1 in which the serine at position 383 has been changed to an alanine. Gupta et al., EMBO J, 15:2760-2770 (1996); Raingeaud et al., Mol. Cell. Biol., 16:1247-1255 (1996); Whitmarsh et al. Science, 269:403-407 (1995).
Insertional overlapping PCR, described in detail in Ho, supra, was used to construct expression vectors for the JNK binding domain (JBD; amino acid residues 127-281) of JIP-1 and for a mutant JIP-1 lacking the SH3 (amino acid residues 491-540) domain.
(§1) Transfected cells were activated by treatment with 10% (v/v) fetal calf serum, and luciferase and β-galactosidase activities were measured in cell lysates at 48 hours post-transfection. The data are presented as the ratio of luciferase activity (light units) to β-galactosidase activity (OD units) measured in the cell extracts (mean±SEM (n=3)), and are normalized to the luciferase activity detected in the absence of JBD (FIGS. 4A and 4B) or ATF2 (FIG. 4C).

[3] = tested on: primary mouse marrow cells (pre-B cells); assay: Bone marrow transformation assay: pre-B cell transformation by BCR-ABL retrovirus; format: cell-based; settings: bicistronic retrovirus, JBD in sense orientation (not anti-sense); day 10 post infection; FIG. 6
Description: To examine the effect of JIP-1 on BCR-ABL-mediated cellular transformation, bone marrow transformation assays were performed using recombinant retroviruses packaged with 293T cells as described in Sawyers et al., J. Exp. Med., 181:307 (1995). Bicistronic retroviruses expressing BCR-ABL, alone, or in combination with the Flag-tagged JBD (residues 127-281) of JIP-1, were prepared by subcloning p185BCR-ABL into the ClaI site of pSRαTK, downstream of the internal TK promoter, to create pSRαMSVTKp185. The JBD was subcloned into the upstream EcoRI site in the sense and antisense orientations.
The recombinant retroviruses were then used to infect primary mouse marrow cells, and the transformation of pre-B cells was monitored in culture. […] The data shown are derived from three independent experiments plated in triplicate. As expected, BCR-ABL caused pre-B cell transformation.

JNK = JNK activation by v-ABL or BCR-ABL in transfected 293 cells (immune complex kinase assay); format: cell-based; settings: co-expression in 293 cells; GST-Jun substrate
Excerpt: The BCR-ABL oncogene, which is associated with chronic myelogenous leukemia (CML), causes JNK activation in the absence of increased ERK activity. Raitano et al., Proc. Natl. Acad. Sci. USA, 92:11746 (1995). Oncogenic transformation by BCR-ABL may be mediated in part by the JNK signaling pathway. Since JIP-1 can inhibit JNK activity, the effect of JIP-1 expression on oncogenic transformation was examined. Plasmid vectors expressing v-ABL or BCR-ABL and Flag-tagged JBD (residues 127-281) of JIP-1 were used to transfect 293 cells. JNK activity was then measured in an immune complex kinase assay of lysates of the transfected 293 cells, using a polyclonal JNK antibody and GST-Jun as the substrate. […] JIP-1 can therefore inhibit BCR-ABL-mediated activation of JNK.

E1a activation domain = assay: GAL4 luciferase reporter assay in CHO cells: E1a activation domain; format: cell-based, Chinese hamster; settings: 48 hours post-transfection, FIG. 4A
c-Myc activation domain = assay: GAL4 luciferase reporter assay in CHO cells: c-Myc activation domain; format: cell-based, Chinese hamster; settings: 48 hours post-transfection, FIG. 4A
Description: (§2) In these experiments, CHO cells were cotransfected with constructs encoding the transcription factors and JIP-1 using previously described methods. Dérijard et al., supra; Sluss et al., supra; Gupta et al., supra. A luciferase reporter plasmid was used to monitor the expression of the transcription factors. Transfection efficiency was determined using a β-galactosidase expression vector. Constructs used in these experiments included GAL4 fusions with the c-myc, Sp1 and VP16 activation domains (described in Whitmarsh et al., Science, 269:403 (1995); Davis, Science, 269:403 (1995); Gille et al., Curr. Biol., 5:1191 (1995)). […]
as §1

VP16 activation domain = assay: GAL4 luciferase reporter assay in CHO cells: VP16 activation domain; format: cell-based, Chinese hamster; settings: 48 hours post-transfection, FIG. 4A
Description: as §2, §1

Sp1 activation domain = assay: GAL4 luciferase reporter assay in CHO cells: Sp1 activation domain; format: cell-based, Chinese hamster; settings: 48 hours post-transfection, FIG. 4A
Description: as §2, §1

B1: JBD: JNK binding domain of JIP-1, residues 127-281, expressed (Flag-tagged) in cells (protein)
chain: PKAESNQDPAPRSQGQGPGTGSGDTYRPKRPTTLNLFPQVPRSQDTLNNNSLGKKHSWQDRVSRSSSPLKTGEQTPPHEHICLSDELPPQGSPVPTQDRGTSTDSPCRRSAATQMAPPSGPPATAPGGRGHSHRDRIHYQADVRLEATEEIYLTP
modifications: Flag tag
**Q.** What does the source list for B1?
**A.** apoptosis following NGF-withdrawal [1]: markedly reduced; JNK-regulated gene expression [2]: inhibition; pre-B cell transformation by BCR-ABL [3]: marked inhibition; constitutive JNK activation caused by v-ABL and BCR-ABL (JNK): blocked; reporter gene expression mediated by E1a activation domain (E1a activation domain): did not inhibit; reporter gene expression mediated by c-Myc activation domain (c-Myc activation domain): did not inhibit; reporter gene expression mediated by VP16 activation domain (VP16 activation domain): did not inhibit; reporter gene expression mediated by Sp1 activation domain (Sp1 activation domain): did not inhibit
